{"source": "patent US7167802", "key": {"[1]": {"test_system": "MK2 41-364 (unphosphorylated, constitutively active)"}, "[2]": {"test_system": "MK2 41-400 (unphosphorylated)", "sequence (chain, as listed by the source)": "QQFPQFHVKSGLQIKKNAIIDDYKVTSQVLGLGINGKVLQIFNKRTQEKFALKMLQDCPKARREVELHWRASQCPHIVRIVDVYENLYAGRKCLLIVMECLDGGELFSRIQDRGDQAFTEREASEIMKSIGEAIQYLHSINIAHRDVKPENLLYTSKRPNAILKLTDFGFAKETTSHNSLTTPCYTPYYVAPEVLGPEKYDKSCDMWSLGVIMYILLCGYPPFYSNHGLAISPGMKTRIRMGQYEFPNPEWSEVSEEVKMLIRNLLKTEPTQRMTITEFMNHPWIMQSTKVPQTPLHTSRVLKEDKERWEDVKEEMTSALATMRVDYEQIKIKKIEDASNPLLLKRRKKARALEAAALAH"}}}
{"substance": "Activated p38 MAP kinase", "values": [{"measurement": "Vmax of the MK2 construct after activation by p38 (0.076 without p38)", "setting": "[1]", "result": 11, "unit": "µmol/min/mg"}, {"measurement": "Vmax of the MK2 construct after activation by p38 (no activity without p38)", "setting": "[2]", "result": 8.9, "unit": "µmol/min/mg"}]}
